Measured values taken from the nanobody polyreactivity screen of Harvey et al. (2022).

Experiment: yeast display, Sf9 membrane polyspecificity reagent, FACS + sequencing; frameworks hold sequencing errors
How it was run: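 After 36–48 hours of galactose induction, yeast (Saccharomyces cerevisiae BJ5465) displaying a synthetic nanobody library were stained at 4 °C for 1 hour with 10% biotinylated, detergent-solubilized Sf9 membrane reagent. Streptavidin microbeads enriched the stained cells before FACS sorting into low and high (top ~1%) gates on anti-HA and streptavidin fluorescence. Each clone's polyreactivity label reflects its gate of origin.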

Sequence | polyreactivity (PSR sort gate)
QVQLVESGGGLVQAGGSLRLSCAASGLTLYYYAMGWYRQAPGKERELVAAISYSGGSTYYADSVKGRFTISRDNAKNTVYLQMNSLKPEDTAVYYCAADGDSDIRDDYWGQGTQVTVSS | low polyreactivity
QVQLVESGGGLVQAGGSLRLSCAASGSTFPFYAMGWYRQAPGKERELVATISSDGSTNYADSVKGRFTISRDNAKNTDYLQMNSLKPEDTAVYYCNALARWCAYYDYGYWGQGTQVTVSS | low polyreactivity
QVQLLESGGGLVQAGGSLRLTCMASGSILGDRMSWYRQARGKEHELVATIYDGGITYYADSMKGRFTISRDNAKNTVYLQLNSLRPEDTAVYYCGASFEGYRYHVYCGQGTQVTVSS | low polyreactivity
QVQLVESGGGLVQAGGSLRLTCAASGSTFRWYAMGWYRPAPGKERELVAVITSGASTNYADSVKGRFTISRDNAKNTVYLQMNSLKPEDTAVYYCNRVPYFRWKYGYWGQGTQVTVSS | high polyreactivity
QVQLVESGGGLVQAGGSLRLSCAASGRIFYIYAMGWYRQEPGKERELVAAISRRAASTYYADSVKGRFTISRDNAKNTVYLQMNSLKPEDTAVYYCAADYYDRKVEYYYWGQGTQVTVSS | high polyreactivity
QVQLVESGGGLVQAGGSLRLCCAAYGFTFRINAMGWYRQAHGKERELVAYMSGRGGSTYYADSVQGRFTISRDNAMNTVYLQMNSLKPEDTAVYYCAATGSSSMSSYYLGQGTQVTVSS | high polyreactivity
QVQLVESGGGLVQAGGSLRLSCAASGYTFSSYTMGWYRQAPRKERELVAAITYSGGSTYYADSVKGRFTISRDNAKNTVYLQMNSLKPEDTAVYYCNARGRYAYAYWGQGTQVTVSS | low polyreactivity
QVQLQGSGGGLVQSGGSLRLSCAASGKIFDADIMGWYRQAPGKESELVASITHGGSTNYADSVKGRFTISRDNAKNNVYLQMNSLIQEDTAVYYCAAIAYPDIPTYFDYDSDCFYWSQGTQVTVSS | high polyreactivity
QVQLVESGGGLVQAGGSLRLSCAASGLIFARYAMGWYRQAPGKERELVAAISSRGGGTYYADSVKGRFTISRDNAKNTVYLQMNSLKPEDTAVYYCNRLRGTPVGLSIGGYYYWGQGTQVTVSS | high polyreactivity
QVQLVESGGGLVQAGGSLRLICAASGSTFSYYAMGWYRQAPGKEMELVAAITSGSSTNYADSVKGRFTISRDNAKNTVYLQMNSLKPEDTAVYYCAASPQPKTYRRRYYYWGQGTQVTVSS | high polyreactivity
QVQLVESGGGLVQAGGSLRLSCAASGRIFTTYTMGWYRQAPGKERELVAAISKRGGSTYYADSVKGRFTISRDNAKNTVYLQMNSLKPEDTAVYYCAAVGGRFFAPYIWSVDSYDYWGQGTQVTVSS | high polyreactivity
QVQRVESGGGVVQAGGSLRLSCAASGSTFQLYAMGWYRQAPGKERELVAGISRDGSTYYADSVKGRFTISRDNAKNTVYLQMNSLKPEDTAVYYCAAKYYGNKRDLYYWGQGTQVTVSS | low polyreactivity
QVQLVESGGGLVQAGGSLRLSCAASGSTFKYYTMGWYIQAPGKERELVAGITLSGTTTYYADSEKGRFTISRDNAKNTVYLQMNSLKPEDTAVYYCAADYYHDFNAYYYWGQGTQVTVSS | low polyreactivity
QVQLVESGGGLVQAGASLRLSCAASGRTFLRYAMGWYRQAPGKERELVAAISSRGGSTYYADSVKGRFTISRDNAKNTVYLQMNSLIPEDTAVYYCAARGCRSQVPVRVFRYDFWGQGTQVTVSS | high polyreactivity
QVQLVESGGGLVQAGGRLRLSCAASGRIFNHYAMGWYRQAPGKERELVAAITFSGGSTYYADSVKGRFTISRDNAKNTVHLQMNSLKPEHTAVYYCANRFSYRYGLQYDYWGQGTQGTVSS | high polyreactivity
QVQLVESGGGLVQAGGSLRLNCAASGSIFDHYAMGWYRQAPGKERELVAAINIRTGYTYYADSVKGRFTISRDNAKNTVYLQMNSLKPEDTAVYYCNRVVRGFVRHLDYWGQGTQVTVSS | low polyreactivity
QVQLVESGGGLVQAGGSLRLSCAASGSTFQPYTMGWYRQAPGTERELVAAITGRGGSTYYADSVKGRFTISRDNAKNTVYLQMNSLKPEDTAVYYCAAGAYRRNKSDYYYWGQGTQVTVSS | low polyreactivity
